Target: T1, TNFR1 (Homo sapiens, UniProt P19438)
T1 chain: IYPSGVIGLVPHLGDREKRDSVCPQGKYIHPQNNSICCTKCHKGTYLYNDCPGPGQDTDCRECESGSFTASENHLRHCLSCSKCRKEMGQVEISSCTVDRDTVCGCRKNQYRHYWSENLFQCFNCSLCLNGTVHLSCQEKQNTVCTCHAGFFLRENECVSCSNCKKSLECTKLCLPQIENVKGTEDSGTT
Experiment: yeast display SC50

| Binder | apparent Kd (screen) [nM] |
| --- | --- |
| A28G (designed binder) MTLQELLREEALRRAEAEAFRYALELLGEKFPEQKEYLLDLAEEIESQIRSLSGVDVEDVRKFLDKEWAWVKELLAEHPAELAEVEAARAARLAELRAEVEAKVAA | 0.446 |
| E99T (designed binder) MTLQELLREEALRRAEAEAFRYALELLAEKFPEQKEYLLDLAEEIESQIRSLSGVDVEDVRKFLDKEWAWVKELLAEHPAELAEVEAARAARLAELRATVEAKVAA | 0.79 |
| V85T (designed binder) MTLQELLREEALRRAEAEAFRYALELLAEKFPEQKEYLLDLAEEIESQIRSLSGVDVEDVRKFLDKEWAWVKELLAEHPAELAETEAARAARLAELRAEVEAKVAA | 0.446 |
| W68V (designed binder) MTLQELLREEALRRAEAEAFRYALELLAEKFPEQKEYLLDLAEEIESQIRSLSGVDVEDVRKFLDKEVAWVKELLAEHPAELAEVEAARAARLAELRAEVEAKVAA | 4.39 |
| E36T (designed binder) MTLQELLREEALRRAEAEAFRYALELLAEKFPEQKTYLLDLAEEIESQIRSLSGVDVEDVRKFLDKEWAWVKELLAEHPAELAEVEAARAARLAELRAEVEAKVAA | 2.25 |
| A94Q (designed binder) MTLQELLREEALRRAEAEAFRYALELLAEKFPEQKEYLLDLAEEIESQIRSLSGVDVEDVRKFLDKEWAWVKELLAEHPAELAEVEAARAARLQELRAEVEAKVAA | 0.79 |
| L26R (designed binder) MTLQELLREEALRRAEAEAFRYALERLAEKFPEQKEYLLDLAEEIESQIRSLSGVDVEDVRKFLDKEWAWVKELLAEHPAELAEVEAARAARLAELRAEVEAKVAA | 0.446 |
| R21D (designed binder) MTLQELLREEALRRAEAEAFDYALELLAEKFPEQKEYLLDLAEEIESQIRSLSGVDVEDVRKFLDKEWAWVKELLAEHPAELAEVEAARAARLAELRAEVEAKVAA | 0.539 |
| L3N (designed binder) MTNQELLREEALRRAEAEAFRYALELLAEKFPEQKEYLLDLAEEIESQIRSLSGVDVEDVRKFLDKEWAWVKELLAEHPAELAEVEAARAARLAELRAEVEAKVAA | 24.4 |
| V60P (designed binder) MTLQELLREEALRRAEAEAFRYALELLAEKFPEQKEYLLDLAEEIESQIRSLSGVDVEDPRKFLDKEWAWVKELLAEHPAELAEVEAARAARLAELRAEVEAKVAA | 12.5 |
| Q4M (designed binder) MTLMELLREEALRRAEAEAFRYALELLAEKFPEQKEYLLDLAEEIESQIRSLSGVDVEDVRKFLDKEWAWVKELLAEHPAELAEVEAARAARLAELRAEVEAKVAA | 0.49 |
| K30S (designed binder) MTLQELLREEALRRAEAEAFRYALELLAESFPEQKEYLLDLAEEIESQIRSLSGVDVEDVRKFLDKEWAWVKELLAEHPAELAEVEAARAARLAELRAEVEAKVAA | 0.718 |
| A91D (designed binder) MTLQELLREEALRRAEAEAFRYALELLAEKFPEQKEYLLDLAEEIESQIRSLSGVDVEDVRKFLDKEWAWVKELLAEHPAELAEVEAARADRLAELRAEVEAKVAA | 0.49 |
| Q4K (designed binder) MTLKELLREEALRRAEAEAFRYALELLAEKFPEQKEYLLDLAEEIESQIRSLSGVDVEDVRKFLDKEWAWVKELLAEHPAELAEVEAARAARLAELRAEVEAKVAA | 0.49 |
| A98R (designed binder) MTLQELLREEALRRAEAEAFRYALELLAEKFPEQKEYLLDLAEEIESQIRSLSGVDVEDVRKFLDKEWAWVKELLAEHPAELAEVEAARAARLAELRREVEAKVAA | 0.653 |
| E86A (designed binder) MTLQELLREEALRRAEAEAFRYALELLAEKFPEQKEYLLDLAEEIESQIRSLSGVDVEDVRKFLDKEWAWVKELLAEHPAELAEVAAARAARLAELRAEVEAKVAA | 0.956 |
| E33F (designed binder) MTLQELLREEALRRAEAEAFRYALELLAEKFPFQKEYLLDLAEEIESQIRSLSGVDVEDVRKFLDKEWAWVKELLAEHPAELAEVEAARAARLAELRAEVEAKVAA | 0.956 |
| A19E (designed binder) MTLQELLREEALRRAEAEEFRYALELLAEKFPEQKEYLLDLAEEIESQIRSLSGVDVEDVRKFLDKEWAWVKELLAEHPAELAEVEAARAARLAELRAEVEAKVAA | 0.956 |

| Binder | apparent Kd (screen) [nM] |
| --- | --- |
| K66E (designed binder) MTLQELLREEALRRAEAEAFRYALELLAEKFPEQKEYLLDLAEEIESQIRSLSGVDVEDVRKFLDEEWAWVKELLAEHPAELAEVEAARAARLAELRAEVEAKVAA | 0.869 |
| E86W (designed binder) MTLQELLREEALRRAEAEAFRYALELLAEKFPEQKEYLLDLAEEIESQIRSLSGVDVEDVRKFLDKEWAWVKELLAEHPAELAEVWAARAARLAELRAEVEAKVAA | 2.73 |
| Q34W (designed binder) MTLQELLREEALRRAEAEAFRYALELLAEKFPEWKEYLLDLAEEIESQIRSLSGVDVEDVRKFLDKEWAWVKELLAEHPAELAEVEAARAARLAELRAEVEAKVAA | 1.69 |
| E9G (designed binder) MTLQELLRGEALRRAEAEAFRYALELLAEKFPEQKEYLLDLAEEIESQIRSLSGVDVEDVRKFLDKEWAWVKELLAEHPAELAEVEAARAARLAELRAEVEAKVAA | 1.69 |
| V104T (designed binder) MTLQELLREEALRRAEAEAFRYALELLAEKFPEQKEYLLDLAEEIESQIRSLSGVDVEDVRKFLDKEWAWVKELLAEHPAELAEVEAARAARLAELRAEVEAKTAA | 0.956 |
| L3A (designed binder) MTAQELLREEALRRAEAEAFRYALELLAEKFPEQKEYLLDLAEEIESQIRSLSGVDVEDVRKFLDKEWAWVKELLAEHPAELAEVEAARAARLAELRAEVEAKVAA | 2.73 |
| E101F (designed binder) MTLQELLREEALRRAEAEAFRYALELLAEKFPEQKEYLLDLAEEIESQIRSLSGVDVEDVRKFLDKEWAWVKELLAEHPAELAEVEAARAARLAELRAEVFAKVAA | 0.593 |
| L75E (designed binder) MTLQELLREEALRRAEAEAFRYALELLAEKFPEQKEYLLDLAEEIESQIRSLSGVDVEDVRKFLDKEWAWVKELEAEHPAELAEVEAARAARLAELRAEVEAKVAA | 0.653 |
| E86D (designed binder) MTLQELLREEALRRAEAEAFRYALELLAEKFPEQKEYLLDLAEEIESQIRSLSGVDVEDVRKFLDKEWAWVKELLAEHPAELAEVDAARAARLAELRAEVEAKVAA | 0.446 |
| K30R (designed binder) MTLQELLREEALRRAEAEAFRYALELLAERFPEQKEYLLDLAEEIESQIRSLSGVDVEDVRKFLDKEWAWVKELLAEHPAELAEVEAARAARLAELRAEVEAKVAA | 0.593 |
| A11L (designed binder) MTLQELLREELLRRAEAEAFRYALELLAEKFPEQKEYLLDLAEEIESQIRSLSGVDVEDVRKFLDKEWAWVKELLAEHPAELAEVEAARAARLAELRAEVEAKVAA | 2.05 |
| R21P (designed binder) MTLQELLREEALRRAEAEAFPYALELLAEKFPEQKEYLLDLAEEIESQIRSLSGVDVEDVRKFLDKEWAWVKELLAEHPAELAEVEAARAARLAELRAEVEAKVAA | 0.49 |
| E33R (designed binder) MTLQELLREEALRRAEAEAFRYALELLAEKFPRQKEYLLDLAEEIESQIRSLSGVDVEDVRKFLDKEWAWVKELLAEHPAELAEVEAARAARLAELRAEVEAKVAA | 0.49 |
| Y37K (designed binder) MTLQELLREEALRRAEAEAFRYALELLAEKFPEQKEKLLDLAEEIESQIRSLSGVDVEDVRKFLDKEWAWVKELLAEHPAELAEVEAARAARLAELRAEVEAKVAA | 0.539 |
| L64V (designed binder) MTLQELLREEALRRAEAEAFRYALELLAEKFPEQKEYLLDLAEEIESQIRSLSGVDVEDVRKFVDKEWAWVKELLAEHPAELAEVEAARAARLAELRAEVEAKVAA | 13.8 |
| E9V (designed binder) MTLQELLRVEALRRAEAEAFRYALELLAEKFPEQKEYLLDLAEEIESQIRSLSGVDVEDVRKFLDKEWAWVKELLAEHPAELAEVEAARAARLAELRAEVEAKVAA | 0.869 |
| A17T (designed binder) MTLQELLREEALRRAETEAFRYALELLAEKFPEQKEYLLDLAEEIESQIRSLSGVDVEDVRKFLDKEWAWVKELLAEHPAELAEVEAARAARLAELRAEVEAKVAA | 0.446 |
